B1: CPEB3 Ribozyme (parent)
chain: GGGGGCCACAGCAGAAGCGUUCACGUCGCGGCCCCUGUCAGAUUCUGGUGAAUCUGCGAAUUCUGCUGU

Variants of: B1
Test: self-cleavage, relative activity (ratio to wild type); higher = more cleavage; co-transcriptional

Going from A15G A52C to A15C U53A, the self-cleavage falls from 0.949 to 0.651.

Going from A15G G56C to A15G G56A, the self-cleavage rises from 0.785 to 0.944.

First: A15G G56U
Second: A15G A23U
The self-cleavage of the first is lower: 0.985 for the first, 1.04 for the second.

Going from A15G A23G to A15C C39U, the self-cleavage falls from 0.959 to 0.535.

Going from A15C C39G to A15G C57A, the self-cleavage falls from 0.596 to 0.45.

Compared with A15G C57G, A15G U46C is higher in self-cleavage: 0.259 for the first, 0.974 for the second.

Going from A15G C39A to A15G U26G, the self-cleavage rises from 0.833 to 0.953.

First: A15G U26A
Second: A15G U26C
The self-cleavage of the first is lower: 0.905 for the first, 1.03 for the second.

Compared with A15G G68A, A15G G68C is higher in self-cleavage: 1.02 for the first, 1.05 for the second.

Compared with A15C G68U, A15C G68C is lower in self-cleavage: 0.969 for the first, 0.917 for the second.

Compared with A15G G28A, A15G G28U is lower in self-cleavage: 0.179 for the first, 0.141 for the second.

First: A15G G25A
Second: A15G G25U
The self-cleavage of the first is lower: 0.127 for the first, 0.148 for the second.

First: A15G G25C
Second: A15C U44A
The self-cleavage of the first is lower: 0.133 for the first, 0.662 for the second.

Going from A15C U44C to A15C U44G, the self-cleavage rises from 0.659 to 0.739.

First: A15G G19C
Second: A15G G19U
The self-cleavage of the first is lower: 0.15 for the first, 0.439 for the second.

Going from A15G G19A to A15G C54A, the self-cleavage rises from 0.216 to 0.914.

Compared with A15G C54G, A15G C54U is higher in self-cleavage: 0.886 for the first, 1.04 for the second.

Going from A15C U67G to A15C C63G, the self-cleavage falls from 0.934 to 0.921.

Compared with A15G C24A, A15C G30A is lower in self-cleavage: 0.691 for the first, 0.392 for the second.

First: A15C G30U
Second: A15G G65C
The self-cleavage of the first is lower: 0.0766 for the first, 0.825 for the second.

Compared with A15G G65U, A15G G30A is higher in self-cleavage: 0.784 for the first, 0.917 for the second.

Going from A15G G30U to A15G C29G, the self-cleavage rises from 0.342 to 0.458.

Going from A15G C29A to A15G U36A, the self-cleavage falls from 0.636 to 0.203.

Compared with A15G U36C, A15G U36G is lower in self-cleavage: 0.966 for the first, 0.152 for the second.

Going from A15G G31C to A15G G31A, the self-cleavage rises from 0.204 to 0.874.

Going from A15G U43C to A15G A59U, the self-cleavage falls from 1.01 to 0.785.

First: A15G A59G
Second: A15G G41U
The self-cleavage of the first is higher: 0.994 for the first, 0.891 for the second.

Going from A15C U20A to A15C U20G, the self-cleavage rises from 0.125 to 0.139.

Going from A15C U20C to A15G C32U, the self-cleavage rises from 0.284 to 1.02.

First: A15G C32A
Second: A15C G17A
The self-cleavage of the first is higher: 0.816 for the first, 0.136 for the second.

Compared with A15C G17U, A15G G17U is higher in self-cleavage: 0.25 for the first, 0.424 for the second.

Going from A15G G17A to A15G A60G, the self-cleavage rises from 0.312 to 0.821.

First: A15G A60C
Second: A15G U49C
The self-cleavage of the first is lower: 0.43 for the first, 0.968 for the second.

Going from A15G U49A to A15G U49G, the self-cleavage falls from 0.986 to 0.95.

Compared with A15G C18G, A15G C18A is lower in self-cleavage: 0.198 for the first, 0.192 for the second.

Going from A15G C18U to A15G C27U, the self-cleavage falls from 0.792 to 0.204.

Going from A15G C27G to A15G C27A, the self-cleavage rises from 0.316 to 0.645.

First: A15G U20A
Second: A15G U20G
The self-cleavage of the first is lower: 0.092 for the first, 0.161 for the second.

Compared with A15G G47A, A15C U64A is lower in self-cleavage: 0.971 for the first, 0.952 for the second.

Compared with A15C U64G, A15C U64C is higher in self-cleavage: 0.91 for the first, 0.958 for the second.

Compared with A15G A42C, A15G A42G is higher in self-cleavage: 0.789 for the first, 0.928 for the second.

Compared with A15G, A15C C54A is lower in self-cleavage: 1 for the first, 0.447 for the second.

Compared with A15C C54U, A15C C54G is lower in self-cleavage: 0.865 for the first, 0.567 for the second.

First: A15G C34U
Second: A15G C34A
The self-cleavage of the first is higher: 1.01 for the first, 0.764 for the second.

Going from A15G C34G to A15G C45G, the self-cleavage rises from 0.665 to 0.965.

First: A15G C45A
Second: A15G C45U
The self-cleavage of the first is lower: 1 for the first, 1.02 for the second.

Compared with A15C G25A, A15C C66A is higher in self-cleavage: 0.127 for the first, 0.357 for the second.

Going from A15C C66U to A15C U21C, the self-cleavage falls from 0.725 to 0.51.

Going from A15C U21A to A15C U61C, the self-cleavage falls from 0.791 to 0.356.

Compared with A15C U61G, A15C U61A is lower in self-cleavage: 0.723 for the first, 0.468 for the second.

First: A15G G50A
Second: A15G U21A
The self-cleavage of the first is higher: 0.973 for the first, 0.956 for the second.

First: A15G U21G
Second: A15G C35A
The self-cleavage of the first is higher: 0.578 for the first, 0.273 for the second.

Going from A15G C35U to A15G C35G, the self-cleavage falls from 0.96 to 0.457.

Compared with A15C G28A, A15C G28U is higher in self-cleavage: 0.138 for the first, 0.191 for the second.

Going from A15C G28C to A15C G50A, the self-cleavage rises from 0.146 to 0.933.

First: A15C G50C
Second: A15G C33A
The self-cleavage of the first is higher: 0.808 for the first, 0.798 for the second.

Compared with A15G C33G, A15G C33U is higher in self-cleavage: 0.534 for the first, 0.999 for the second.

First: A15G C22U
Second: A15C G56U
The self-cleavage of the first is lower: 0.287 for the first, 0.626 for the second.

Compared with A15C G56A, A15G A16U is higher in self-cleavage: 0.651 for the first, 0.691 for the second.

Compared with A15G A16G, A15C G58A is lower in self-cleavage: 0.93 for the first, 0.809 for the second.

Going from A15C G58C to A15C U46C, the self-cleavage rises from 0.84 to 0.88.

First: A15C U46A
Second: A15C G41C
The self-cleavage of the first is higher: 0.93 for the first, 0.215 for the second.

Compared with A15C G41A, A15G C66U is higher in self-cleavage: 0.289 for the first, 0.964 for the second.

First: A15G C66A
Second: A15C G48C
The self-cleavage of the first is lower: 0.828 for the first, 0.918 for the second.

Compared with A15C G48A, A15C G48U is lower in self-cleavage: 0.935 for the first, 0.883 for the second.

Going from A15C G37U to A15C G37C, the self-cleavage falls from 0.168 to 0.105.

First: A15C G37A
Second: A15G U53C
The self-cleavage of the first is lower: 0.196 for the first, 0.859 for the second.

Going from A15C U36G to A15C U36A, the self-cleavage rises from 0.214 to 0.288.

First: A15C U36C
Second: A15C U69C
The self-cleavage of the first is lower: 0.487 for the first, 0.978 for the second.

Compared with A15C G65A, A15G C63G is higher in self-cleavage: 0.43 for the first, 0.674 for the second.

Compared with A15G C63A, A15G C63U is higher in self-cleavage: 0.799 for the first, 0.947 for the second.

Going from A15C G31C to A15C G31A, the self-cleavage rises from 0.27 to 0.456.

Compared with A15C U43C, A15C G47U is higher in self-cleavage: 0.754 for the first, 0.916 for the second.

First: A15G G37A
Second: A15G G37U
The self-cleavage of the first is lower: 0.27 for the first, 0.286 for the second.

First: A15G A40G
Second: A15C U26A
The self-cleavage of the first is higher: 0.996 for the first, 0.48 for the second.

First: A15C U26C
Second: A15C U49C
The self-cleavage of the first is lower: 0.73 for the first, 0.842 for the second.

First: A15C U49G
Second: A15C C57U
The self-cleavage of the first is higher: 0.858 for the first, 0.423 for the second.

Going from A15G G48C to A15G G48U, the self-cleavage falls from 1 to 0.989.

Compared with A15G G48A, A15G A51C is higher in self-cleavage: 0.966 for the first, 0.993 for the second.

Compared with A15C U55A, A15C U55C is higher in self-cleavage: 0.435 for the first, 0.545 for the second.

Compared with A15G G58U, A15G G58C is higher in self-cleavage: 0.978 for the first, 1.01 for the second.

Going from A15G U38G to A15G U38C, the self-cleavage rises from 0.157 to 0.97.

Compared with A15C U38C, A15C U38G is lower in self-cleavage: 0.571 for the first, 0.292 for the second.

For A15C U38A, the self-cleavage was 0.595.

From the RNAGym collection of RNA variant scans (doi:10.7554/elife.80360)
